The text below walks through data of publication PMC10821868.

Several values for one entry are separate records, joined by “and”; a condition that tells them apart may be missing. Equal values may be shown once.

For experiment [1], the target named is PKM2 (mouse (endogenous in ImKCs)) (UniProt P52480). In words: cross-linking; DSS crosslinking followed by Western blotting, after DPI treatment; also with the ERK1/2 inhibitor SCH772984.
Experiment [2] has the same target. In words: native gel or EMSA; ImKCs treated with vehicle or DPI (50 and 500 nM) for 1 h (also 6 and 12 h); proteins extracted in Native PAGE sample buffer with 1% digitonin, run on native PAGE, anti-PKM2 Western blotting.

PKM2, P52480-1 1-531 (enzyme; other documents disagree on this pair), sequence (P52480 whole entry): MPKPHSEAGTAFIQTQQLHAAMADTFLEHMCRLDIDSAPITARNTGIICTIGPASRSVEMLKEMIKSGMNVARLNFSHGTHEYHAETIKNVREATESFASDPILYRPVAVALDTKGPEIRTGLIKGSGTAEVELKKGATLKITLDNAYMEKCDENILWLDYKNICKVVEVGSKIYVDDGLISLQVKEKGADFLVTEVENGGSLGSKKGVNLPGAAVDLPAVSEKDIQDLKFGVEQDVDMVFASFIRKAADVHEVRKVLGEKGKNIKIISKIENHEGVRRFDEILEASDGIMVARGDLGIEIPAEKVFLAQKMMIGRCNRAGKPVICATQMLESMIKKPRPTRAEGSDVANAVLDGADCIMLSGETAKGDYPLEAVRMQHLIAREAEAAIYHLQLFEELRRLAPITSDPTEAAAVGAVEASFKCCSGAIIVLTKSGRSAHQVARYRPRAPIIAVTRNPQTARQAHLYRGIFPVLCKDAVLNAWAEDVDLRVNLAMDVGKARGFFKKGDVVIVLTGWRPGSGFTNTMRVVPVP

Take “PKM2, P52480-1 1-531 (enzyme; other documents disagree on this pair)”: the stoichiometry N in experiment [1] was 2; in experiment [2], 2 and 4.
